Reference: US20130196320A1, “METHOD FOR IMPROVING CLEAVAGE OF DNA BY ENDONUCLEASE SENSITIVE TO METHYLATION” (CELLECTIS, priority 2010, published 2013)
Where two headings read alike, the source gives them in different places.

Assays:
[1] = tested on: ADCY9 target CpG in 293H cells; assay: DNA methylation status of ADCY9 target by bisulfite technique; format: cell-based, human; conditions: 0.2 and 1 μM; 100% methylated without treatment
Protocol: The human 293H cells (ATCC) were plated at a density of 1.2×10^6 cells per 10 cm dish in complete medium (DMEM supplemented with 2 mM L-glutamine, penicillin (100 IU/ml), streptomycin (100 μg/ml), amphotericin B (Fongizone: 0.25 μg/ml, Invitrogen-Life Science) and 10% FBS). The cells were pre-treated with 5-aza-deoxycytidine at 0.2 μM or 1 μM, 48 hours before transfection and the treatment was maintained 48 hours post-transfection. The medium was changed every day. The cells were transfected with 5 μg of DNA plasmids encoding meganuclease using Lipofectamine 2000 transfection reagent (Invitrogen) according to the manufacturer's protocol.
The procedure as described in Example 4 was followed to assess the level of DNA methylation, except that we used specific primers to amplify the sequence surrounded the ADCY9 meganuclease recognition site. Primers ADCY9_F1 […] (SEQ ID NO: 43) and ADCY9_R1 […] (SEQ ID NO: 44) were used. PCR products were sequenced directly with primer ADCY9_F2 […] (SEQ ID NO: 45).

XPC4.1 DNA target = assay: In vitro single turn over cleavage assay with XPC4.1; format: biochemical
Protocol: FIG. 8: In vitro cleavage of unmethylated or methylated XPC4.1 by XPC4. A constant amount of XPC4.1 duplex (50 nM) was incubated with an excess of XPC4 (1.5 μM, final concentration) in the reaction buffer (10 mM Tris-HCl, 150 mM NaCl, pH8) at 37° C. Cleavage reaction was triggered by the addition of MgCl2 and then stopped after different time lengths by the addition of the stop buffer. This was followed by one hour of incubation at 37° C. to digest XPC4 and release free DNA molecules. Cleaved and uncleaved DNA products were separated by PAGE using a TGX Any kD precast gel (Bio-Rad), stained with SYBR Green and then quantified using Quantity One software (Bio-Rad). […]
To investigate the influence of C1234 methylation on the nuclease activity of I-Cre I, in vitro single turn over cleavage assays were performed with either unmethylated or methylated C1234 duplexes (unmethylated C1234 composed of SEQ ID NO: 31+SEQ ID NO: 32, C1234_Me full composed of SEQ ID NO: 35+SEQ ID NO: 38, C1234_Me-6a/-5b composed of SEQ ID NO: 33+SEQ ID NO: 36, C1234_Me-3a/-2b composed of SEQ ID NO: 34+SEQ ID NO: 37, C1234_Me-3a composed of SEQ ID NO: 34+SEQ ID NO: 32, C1234_Me-2b composed of SEQ ID NO: 31+SEQ ID NO: 37, respectively). […] Cleaved and uncleaved DNA products were separated by PAGE using a TGX Any kD precast gel (Bio-Rad), stained with SYBR Green and then quantified using Quantity One software (Bio-Rad). […]

C1221 DNA target = assay: In vitro cleavage assay with C1221 duplex, increasing meganuclease concentration; format: biochemical
Protocol: FIG. 2: In vitro cleavage of unmethylated or methylated C1221 by I-CreI. A constant amount of C1221 (50 nM) was incubated with increasing concentrations of I-CreI (0 to 2 μM) in reaction buffer (10 mM Tris-HCl, 150 mM NaCl, 10 mM MgCl2, pH8) for an hour at 37° C. The reaction was stopped and the remaining uncleaved C1221 was quantify and plotted as function of I-CreI concentration.
FIG. 3: In vitro cleavage of unmethylated or methylated C1221 by I-CreI D75N. 50 nM C1221 containing either 0, 1, 2 or 3 methylated CG was incubated with increasing concentrations of I-CreI D75N (0 to 2 μM) in reaction buffer (10 mM Tris-HCl, 150 mM NaCl, 10 mM MgCl2, pH8) for an hour at 37° C. The reaction was stopped and cleaved and uncleaved C1221 (top and bottom panel respectively) were quantify and plotted as function of I-CreI D75N concentration.
To investigate the influence of C1221 methylation on the nuclease activity of I-CreI, an in vitro cleavage assay with either unmethylated or fully methylated C1221 duplex (SEQ ID NOs: 4-5 and 12-13 respectively) was performed. A constant amount of C1221 duplex (50 nM) was incubated with increasing concentration of I-CreI (0 to 2 μM) in a total volume of 25 μL of reaction buffer (10 mM Tris-HCl, 150 mM NaCl, 10 mM MgCl2, pH8). Cleavage reaction was allowed to proceed 1 hour at 37° C. and then stopped by addition of 5 μL of 6× stop buffer (45% glycerol, 95 mM EDTA, 1.5% (w/v) SDS, 1.5 mg/mL proteinase K and 0.048% (w/v) bromophenol blue) followed by an hour incubation at 37° C. Cleaved and uncleaved DNA products were separated by PAGE using a TGX Any kD precast gel (Bio-Rad), stained with SYBR Green and then quantified using Quantity One software (Bio-Rad).
To investigate the influence of C1221 methylation on the nuclease activity of I-CreI D75N, in vitro cleavage assay with C1221 duplex containing either 0, 1, 2 or 3 methylated CG (SEQ ID NOs: 4-5, 6-7, 8-9, 10-11 respectively) was performed, according to the procedure described for I-CreI wild type.

## Nc1ncn([C@H]2C[C@H](O)[C@@H](CO)O2)c(=O)n1 [5-aza-2′deoxycytidine, reference compound]
[1]
  amount of methylated CpG within ADCY9 target: 40%

B1: XPC4: engineered meganuclease (SEQ ID NO: 2) designed to cleave xeroderma pigmentosum group C gene (XPC) (protein)
chain: MANTKYNEEFLLYLAGFVDGDGSIIAQIKPNQSHKFKHALQLTFKVTQKTQRRWFLDKLVDEIGVGYVQDSGSVSNYILSEIKPLHNFLTQLQPFLELKQKQANLALKIIEQLPSAKESPDKFLEVCTWVDQVAALNDSKTRKTTSETVRAVLDSLSEKKKSSPAAGGSDKYNQALSKYNQALSKYNQALSGGGGSNKKFLLYLAGFVDSDGSIIAQIKPNQSHKFKHQLSLAFQVTQKTQRRWFLDKLVDRIGVGYVRDRGSVSDYILSKIKPLHNFLTQLQPFLKLKQKQANLVLKIIEQLPSAKESPDKFLEVCTWVDQVAALNDSKTRKTTSETVRAVLDSLSEKKKSSP
XPC4.1 DNA target; XPC4.1_Me −11a/−10b & +10a/+11b (fully methylated)
  kcat: 0.0017 ± 0.00017 s⁻¹
XPC4.1 DNA target; unmethylated XPC4.1
  kcat: 0.0013 ± 0.00017 s⁻¹

B2: I-CreI: wild-type I-CreI meganuclease (… homing endonuclease), SEQ ID NO: 1, recombinant Cterm His-tag (protein, listed as Chlamydomonas reinhardtii)
chain: MNTKYNKEFLLYLAGFVDGDGSIIAQIKPNQSYKFKHQLSLTFQVTQKTQRRWFLDKLVDEIGVGYVRDRGSVSDYILSEIKPLHNFLTQLQPFLKLKQKQANLVLKIIEQLPSAKESPDKFLEVCTWVDQIAALNDSKTRKTTSETVRAVLDSLSEKKKSSP
modifications: C-terminal His-tag
C1221 DNA target; fully methylated C1221, 1 hour at 37° C., read-out: C50 (concentration of I-CreI needed to cleave 50% of C1221)
  EC50: > 2000 nM
C1221 DNA target; unmethylated C1221
  I-CreI concentration at which C1221 is totally cleaved: 250 nM
C1221 DNA target; unmethylated C1221, 1 hour at 37° C., read-out: C50 (concentration of meganuclease needed to cleave 50% of C1221)
  EC50: 100 nM
